Article PMC3102714, “OsSpo11-4, a Rice Homologue of the Archaeal TopVIA Protein, Mediates Double-Strand DNA Cleavage and Interacts with OsTopVIB” (PLoS ONE, 2011)

Biological target: T1, GST-OsTopVIB fusion protein (Oryza sativa L. ssp. japonica, UniProt Q6H442 1-696)
T1 construct: OsTopVIB, Oryza sativa L. ssp. japonica; ORF amplified with primers P17 and P18, cloned BamHI/BglII into pESP-2; fusion about 103 kD; also called OsTopVIB-GST fusion; GST-TopVIB
T1 sequence (looked up): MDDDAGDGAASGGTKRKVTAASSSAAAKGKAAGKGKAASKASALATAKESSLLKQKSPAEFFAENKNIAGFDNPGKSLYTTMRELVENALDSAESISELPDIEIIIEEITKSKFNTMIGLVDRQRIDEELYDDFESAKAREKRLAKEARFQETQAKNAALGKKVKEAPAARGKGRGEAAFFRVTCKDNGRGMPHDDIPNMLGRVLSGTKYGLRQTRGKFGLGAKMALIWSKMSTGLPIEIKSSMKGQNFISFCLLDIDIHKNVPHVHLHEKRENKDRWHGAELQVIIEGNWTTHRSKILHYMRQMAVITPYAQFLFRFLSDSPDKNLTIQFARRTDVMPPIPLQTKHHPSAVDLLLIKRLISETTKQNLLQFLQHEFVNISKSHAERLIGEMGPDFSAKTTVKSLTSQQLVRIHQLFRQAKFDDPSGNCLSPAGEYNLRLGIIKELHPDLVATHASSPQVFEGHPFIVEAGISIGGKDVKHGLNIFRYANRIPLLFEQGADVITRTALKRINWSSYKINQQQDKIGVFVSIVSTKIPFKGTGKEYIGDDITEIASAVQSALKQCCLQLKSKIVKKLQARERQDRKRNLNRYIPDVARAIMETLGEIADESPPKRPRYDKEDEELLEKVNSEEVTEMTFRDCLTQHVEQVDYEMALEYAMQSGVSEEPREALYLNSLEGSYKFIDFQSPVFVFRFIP
Assay: pull-down; GST-OsTopVIB preabsorbed to Glutathione Sepharose resin; purified pET-OsSpo11-4 precleared with GST resin; 0.5% NP-40 lysis buffer (20 mM Tris-HCl pH 8.0, 200 mM NaCl, 1 mM EDTA), 4°C, 6 h; western blot with antibody against pET-OsSpo11-4
Details: both partners purified

binding result: binds
B1: pET-OsSpo11-4 fusion protein (natural protein, Oryza sativa L. ssp. japonica, UniProt Q2QM00 1-487, looked up)
chain: MDDSTDDDSYHPRKHYAYDRQVSSSRWRTSREYIRGPGPETHTTESAQDGQDPPAGVYSYGYFSGSGNDPQVQGHFVPEIQKYNPYVIFKGEQLPVPIWELPEEKVQDFHDRYFIAKDKSRVEARKTLNRLLEGNINTIERGHGYKFNIPKYTDNMEFNEEVKVSLAKAGKTISRSFCNANQREVASRTGYTIDLIERTLGAGLNISKRTVLYTNKDLFGDQSKSDQAINDICALTNIRRGSLGIIAAEKGIVVGNIFLELTNGKSISCSIGVQIPHRLDQIKDVCVEIGSRNIEYILVVEKHTMLNYLLEMDYHTNNNCIILTGCGMPTLQTRDFLRFLKQRTGLPVFGLCDPDPEGISILATYARGSCNSAYDNFNISVPSICWVGLSSSDMIKLNLSETNYSRLSREDKTMLKNLWQDDLSDVWKRRIEEMISFDKKASFEAIHSLGFDYFATNLLPDMINKVREGYVQVQEKKEPQDTEASED
notes: OsSpo11-4, Oryza sativa L. ssp. japonica, predicted protein of 487 amino acids; full-length ORF amplified with primers P5 and P6, cloned into EcoRI/XhoI of pET-32a(+); fusion about 72 kD; Forward primer P5 lacks the ATG GAT that primer P15 has, so the insert may lack the first two codons; also called pET-Spo11-4
